# Target: T1, GST (UniProt P08515 1-218 = GST, limits assumed)
# T1 construct: Control for the GST fusion proteins; its source is not described; also called GST alone; glutathione S-transferase
# Test: GST pull-down from mouse cerebellar cytosolic fraction, Western blot with anti-CARP antibody
# Text: Next, the inventors of the present application examined the interaction between CARP and IP_3R1 by means of a pull-down method in order to obtain further evidence for the interaction by biochemical methods. The inventors first developed expression system in Sf9 cells, and made IP_3R1 soluble by removing the channel domain. The soluble IP_3R1, designated GST-EL, covers both the ligand binding domain and modulatory domain (amino acids 1-2217 Of mIP_3R1) and has GST in its N terminus. Mouse cerebellar cytosolic fraction was incubated with GST-EL or GST, and binding of CARP to the recombinant proteins was analyzed by immunoblotting with anti-CARP antibody. The results are shown in photographs of FIG. 4 which are substituted for drawings.
# Adult mouse cerebella were homogenized in 10 mM HEPES (pH 7.4), 320 mM Sucrose, 2 mM EDTA, 1 mM 2-mercaptoethanol, and protease inhibitors and the homogenate was centrifuged at 1,000× g for 10 min. The supernatant was centrifuged at 100,000× g for 60 min to obtain the cytosolic fraction (the supernatant) and the crude microsome (the pellet). The cytosolic fraction was added with 100 mM NaCl, and incubated with 20 μg of GST-EL or GST for 2 hours at 4° C. […] The eluted proteins were analyzed by Western blotting with anti-CARP antibody.
# T1 sequence (P08515 whole entry, the tested form may be a part): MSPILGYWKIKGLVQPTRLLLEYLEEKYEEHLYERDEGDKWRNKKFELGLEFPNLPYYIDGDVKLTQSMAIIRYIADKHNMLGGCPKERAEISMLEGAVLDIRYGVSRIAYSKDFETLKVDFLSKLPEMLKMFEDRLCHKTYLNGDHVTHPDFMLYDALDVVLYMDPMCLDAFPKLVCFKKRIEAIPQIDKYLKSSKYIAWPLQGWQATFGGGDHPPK
row,binding result,Binder
1,no binding (tested: 20 µg of GST),"CARP of the cytosolic fraction of mouse cerebellum (other, Endogenous protein in a tissue fraction, detected by Western blotting with anti-CARP polyclonal antibody; also called endogenous CARP) MADLSFIEDAVAFPEKEEDEEEEEEEGVEWGYEEGVEWGLVFPDANGEYQSPINLNSREARYDPSLLDVRLSPNYVVCRDCEVTNDGHTIQVILKSKSVLSGGPLPGGQEFELYEVRFHWGRENQRGSEHTVNFKAFPMELHLIHWNSTLFGSIDEAVGKPHGIAIIALFVQIGKEHVGLKAVTEILQDIQYKGKSKTIPCFNPNTLLPDPLLRDYWVYEGSLTIPPCSEGVTWILFRYPLTISQMQIEEFRRLRTHVKGVELVEGCDGILGDNFRPTQPLSDRVIRAAFQ"

# Target: T2, MD2 bait construct (mIP3R1: 1387-1647 amino acids) in pGBT9 (mouse, UniProt P11881 1387-1647)
# T2 construct: also called IP3R1 modulatory domain bait 2; not shown: fusion partner encoded by the bait vector pGBT9 and primer-encoded linker
# T2 sequence (P11881 1387-1647): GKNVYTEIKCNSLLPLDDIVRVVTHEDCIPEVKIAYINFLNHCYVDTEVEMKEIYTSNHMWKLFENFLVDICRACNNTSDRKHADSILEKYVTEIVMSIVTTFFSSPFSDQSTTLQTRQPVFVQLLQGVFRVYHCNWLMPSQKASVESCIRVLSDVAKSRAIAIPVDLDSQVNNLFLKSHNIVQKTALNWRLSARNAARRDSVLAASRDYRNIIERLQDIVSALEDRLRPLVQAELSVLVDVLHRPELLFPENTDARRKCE
# Test: yeast two-hybrid beta-gal assay
# Method: To determine the respective interaction domains of CARP and IP_3R1, truncated mutants of both genes were prepared and analyzed using yeast two-hybrid system. […] Interactions between CARP mutants and MD2, CARP and IP_3R1 mutants were analyzed by β-gal assay by the yeast two-hybrid system. The prepared mutant and results of β-gal assay in the yeast two-hybrid system (n=3) are shown in FIG. 5. β-gal assay was evaluated by the time of blue colony appearance, i.e., blue colony appears within 30 min (+++), 2 h (++) and 8 hr (+).
# Yeast two-hybrid assay in the following examples was conducted using MATCHJMAKER™ Two-Hybrid system according to the manufacturer's protocol (Clontech Laboratories Inc., Palo Alto, Calif., USA).
row,binding result,Binder
1,no binding,"pGAD-GL-ΔC2 (CARP; 1-147 amino acids) (other, Yeast two-hybrid truncation construct; not shown: fusion partner encoded by vector pGAD-GL) MADLSFIEDAVAFPEKEEDEEEEEEEGVEWGYEEGVEWGLVFPDANGEYQSPINLNSREARYDPSLLDVRLSPNYVVCRDCEVTNDGHTIQVILKSKSVLSGGPLPGGQEFELYEVRFHWGRENQRGSEHTVNFKAFPMELHLIHWN"
2,no binding,"pGAD-GL-ΔC3 (CARP; 1-170 amino acids) (other, Yeast two-hybrid truncation construct; not shown: fusion partner encoded by vector pGAD-GL) MADLSFIEDAVAFPEKEEDEEEEEEEGVEWGYEEGVEWGLVFPDANGEYQSPINLNSREARYDPSLLDVRLSPNYVVCRDCEVTNDGHTIQVILKSKSVLSGGPLPGGQEFELYEVRFHWGRENQRGSEHTVNFKAFPMELHLIHWNSTLFGSIDEAVGKPHGIAIIALF"
3,no binding,"pGAD-GL-ΔC4 (CARP; 1-180 amino acids) (other, Yeast two-hybrid truncation construct; not shown: fusion partner encoded by vector pGAD-GL) MADLSFIEDAVAFPEKEEDEEEEEEEGVEWGYEEGVEWGLVFPDANGEYQSPINLNSREARYDPSLLDVRLSPNYVVCRDCEVTNDGHTIQVILKSKSVLSGGPLPGGQEFELYEVRFHWGRENQRGSEHTVNFKAFPMELHLIHWNSTLFGSIDEAVGKPHGIAIIALFVQIGKEHVGL"
4,no binding,"pGAD-GL-ΔC6 (CARP; 1-234 amino acids) (other, Yeast two-hybrid truncation construct; not shown: fusion partner encoded by vector pGAD-GL) MADLSFIEDAVAFPEKEEDEEEEEEEGVEWGYEEGVEWGLVFPDANGEYQSPINLNSREARYDPSLLDVRLSPNYVVCRDCEVTNDGHTIQVILKSKSVLSGGPLPGGQEFELYEVRFHWGRENQRGSEHTVNFKAFPMELHLIHWNSTLFGSIDEAVGKPHGIAIIALFVQIGKEHVGLKAVTEILQDIQYKGKSKTIPCFNPNTLLPDPLLRDYWVYEGSLTIPPCSEGVTW"

# More lines, now with the values behind:
row,Binder,binding result
1,"pGAD-GL-ΔC1 (CARP; 1-127 amino acids) (other, Yeast two-hybrid truncation construct; not shown: fusion partner encoded by vector pGAD-GL) MADLSFIEDAVAFPEKEEDEEEEEEEGVEWGYEEGVEWGLVFPDANGEYQSPINLNSREARYDPSLLDVRLSPNYVVCRDCEVTNDGHTIQVILKSKSVLSGGPLPGGQEFELYEVRFHWGRENQRG",no binding
2,"pGAD-GL-ΔC8 (CARP; 121-291 amino acids) (other, Yeast two-hybrid truncation construct; not shown: fusion partner encoded by vector pGAD-GL) GRENQRGSEHTVNFKAFPMELHLIHWNSTLFGSIDEAVGKPHGIAIIALFVQIGKEHVGLKAVTEILQDIQYKGKSKTIPCFNPNTLLPDPLLRDYWVYEGSLTIPPCSEGVTWILFRYPLTISQMQIEEFRRLRTHVKGVELVEGCDGILGDNFRPTQPLSDRVIRAAFQ",no binding
3,"pGAD-GL-ΔC5 (CARP; 1-217 amino acids) (other, Yeast two-hybrid truncation construct; not shown: fusion partner encoded by vector pGAD-GL) MADLSFIEDAVAFPEKEEDEEEEEEEGVEWGYEEGVEWGLVFPDANGEYQSPINLNSREARYDPSLLDVRLSPNYVVCRDCEVTNDGHTIQVILKSKSVLSGGPLPGGQEFELYEVRFHWGRENQRGSEHTVNFKAFPMELHLIHWNSTLFGSIDEAVGKPHGIAIIALFVQIGKEHVGLKAVTEILQDIQYKGKSKTIPCFNPNTLLPDPLLRDYW",no binding
4,"pGAD-GL-ΔC9 (CARP; 184-291 amino acids) (other, Yeast two-hybrid truncation construct; not shown: fusion partner encoded by vector pGAD-GL) TEILQDIQYKGKSKTIPCFNPNTLLPDPLLRDYWVYEGSLTIPPCSEGVTWILFRYPLTISQMQIEEFRRLRTHVKGVELVEGCDGILGDNFRPTQPLSDRVIRAAFQ",no binding

# Target: T2, MD2 bait construct (mIP3R1: 1387-1647 …)
# Test: yeast two-hybrid screen of a mouse brain cDNA library with MD2 as bait
row,binding result,Binder
1,binds,"carbonic anhydrase-related protein (CARP), full-length, yeast two-hybrid prey in pGAD-GL (other, 13 positive clones from a mouse brain cDNA library; they contain different lengths of 5'UTR of CARP cDNA followed by a full-length coding region in frame; also called mouse CARP; not shown: fusion partner encoded by the library vector pGAD-GL (and in-frame 5'UTR of differing length); not described in the fili) MADLSFIEDAVAFPEKEEDEEEEEEEGVEWGYEEGVEWGLVFPDANGEYQSPINLNSREARYDPSLLDVRLSPNYVVCRDCEVTNDGHTIQVILKSKSVLSGGPLPGGQEFELYEVRFHWGRENQRGSEHTVNFKAFPMELHLIHWNSTLFGSIDEAVGKPHGIAIIALFVQIGKEHVGLKAVTEILQDIQYKGKSKTIPCFNPNTLLPDPLLRDYWVYEGSLTIPPCSEGVTWILFRYPLTISQMQIEEFRRLRTHVKGVELVEGCDGILGDNFRPTQPLSDRVIRAAFQ"

# From patent US7276582 (JAPAN SCIENCE AND TECHNOLOGY AGENCY, dated 2007)
